Patent US20180186880A1

Target: B7-H3 ECD (extracellular domain of B7-H3) (UniProt Q5ZPR3)
Experiment: adsorption ELISA on B7-H3 ECD, serial dilutions of purified mAb, estimate of binding affinity

- Affinity: 5 nM
B1: TRL4542 (antibody, V domains shown)
VH: QVQLVESGGDLVQPGESLRLSCAASGFIFSDAWMVWVRQAPGKGLEWVGRIKTNGDGGTTDLTEPVKGRFTISRDDSKNMVYLQMNNLRTEDTAIYYCTTAPGFWGQGTLVTVSS
VL: DIEMTQSPDSLAVSLGERATINCKSSHNLLYKSNNKNYLAWSQQKPGQPPRLLIYWASTRDSGVPDRFSGSGSGTDFTLTISSLQAEDVAVYYCHQYYGTKWTFGQGTRVEIKR
